In patent publication US20200040081A1 (SURFACE ONCOLOGY, published 2020):

T1: human CD112R over-expressed on Jurkat cells (human, UniProt Q6DKI7 1-326)
T1 construct: whole, on cells; also called Jurkat-CD112R OE; PVRIG
T1 sequence (looked up): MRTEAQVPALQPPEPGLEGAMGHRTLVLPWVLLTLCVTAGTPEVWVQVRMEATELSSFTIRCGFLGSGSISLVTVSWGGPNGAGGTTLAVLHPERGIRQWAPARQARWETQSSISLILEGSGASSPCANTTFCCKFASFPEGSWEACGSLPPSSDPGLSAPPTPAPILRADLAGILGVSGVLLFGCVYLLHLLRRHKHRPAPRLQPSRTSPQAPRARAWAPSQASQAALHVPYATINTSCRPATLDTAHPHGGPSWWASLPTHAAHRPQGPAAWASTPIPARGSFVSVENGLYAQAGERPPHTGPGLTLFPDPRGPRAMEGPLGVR


Tests used:
[1] = target: T2, mouse CD112R over-expressed on 293T cells (mouse); assay: flow cytometry on 293T cells over-expressing mouse CD112R
T2 construct: whole, on cells; also called 293T.mCD112R; 293T-mouse CD112R
Method: The ability of anti-CD112R antibodies to bind to mouse CD112R was evaluated on cells overexpressing mouse CD112R. 0.8×10⁵ 293T cells (ATCC CRL-3216) that were engineered to overexpress mouse CD112R (293T.mCD112R) were added to each well of a 96-well V bottom plate and stained with either anti-CD112R antibodies or an IgG1 isotype control at a starting concentration of […], with 3-fold serial dilutions for 30 minutes at 4° C. Cells were washed twice with PBS+2% FCS and resuspended with Alexa Fluor® 647 anti-human IgG Fc antibody (Biolegend, Cat #409320) diluted 1:100 in PBS+2% FCS and incubated at 4° C. for 20 minutes. Cells were subsequently washed twice and resuspended in PBS+2% FCS. Cellular data was acquired using a LSRFortessa X-20 (BD Biosciences) and analyzed with FlowJo software (Tree Star).
Results are depicted in FIG. 17 and Table 11. Quantitation of antibody binding to 293T.mCD112R cells was assessed by the geometric mean fluorescent intensity (gMFI) of the Alexa Fluor® 647 signal.

[2] = target: T1, human CD112R over-expressed on Jurkat …; assay: flow cytometry on Jurkat cells over-expressing human CD112R, 0.63 ug/mL antibody
Method: The ability of anti-CD112R antibodies to bind to CD112R expressed on cells was evaluated. 1×10⁵ Jurkat cells (acute T cell leukemia cell line, ATCC # TIB-152) that were either wild type or engineered to over-express human CD112R (Jurkat-CD112R OE) were added to each well of a 96-well V bottom plate and stained with either anti-CD112R antibodies or an IgG1 isotype control (0.63 μg/mL) for 1 hour at 4° C. Cells were washed twice with PBS+2% FCS and resuspended with Alexa Fluor® 647 anti-human IgG Fc antibody (Biolegend, Cat #409320) diluted 1:100 in PBS+2% FCS and incubated at 4° C. for 30 minutes. Cells were subsequently washed twice and resuspended in PBS+2% FCS. Cellular data was acquired using a LSRFortessa X-20 (BD Biosciences) and analyzed with FlowJo software (Tree Star).
Results are depicted in FIG. 1. Quantitation of antibody binding to Jurkat-CD112R OE cells was assessed by the geometric mean fluorescent intensity (gMFI) of the Alexa Fluor® 647 signal.

Binder	293T-mouse CD112R gMFI (fold increase over isotype) [1]	Jurkat-CD112R over-expressed (OE) gMFI (fold increase over isotype) [2]
Antibody 32 (antibody, V domains shown, Tested as IgG detected with anti-human IgG Fc, compared with an IgG1 isotype control; Parent of antibodies 33, 34, 35 and 36; also called antibody clone number 32; parent clone 32) VH: QVQLVQSGAEVKKPGSSVKVSCKASGGTFSSYAISWVRQAPGQGLEWMGGIIPISGTANYAQKFQGRVTITADESTSTAYMELSSLRSEDTAVYYCARDTGRGYTRHFWFDPWGQGTLVTVSS VL: DIQMTQSPSSLSASVGDRVTITCRASQSISSYLNWYQQKPGKAPKLLIYAASSLQSGVPSRFSGSGSGTDFTLTISSLQPEDFATYYCQQSDILYTFGGGTKVEIK	14.9 fold	27.9 fold
Antibody 46 (antibody, V domains shown, also called antibody clone number 46; clone 46) VH: EVQLVESGGGLVQPGRSLRLSCTASGFTFGDYAMSWFRQAPGKGLEWVGFIGSKAYGGTTEYTASVKGRFTISRDGSKSIAYLQMNSLKTEDTAVYYCARGPRRYTYGMDVWGQGTTVTVSS VL: DIQMTQSPSSLSASVGDRVTITCRASQSISSYLNWYQQKPGKAPKLLIYAASSLQSGVPSRFSGSGSGTDFTLTISSLQPEDFATYYCQQSSTPLTFGGGTKVEIK	74.8 fold	23.8 fold
Antibody 35 (antibody, V domains shown, Tested as IgG detected with anti-human IgG Fc, compared with an IgG1 isotype control; also called antibody clone number 35; clone 35) VH: QVQLVQSGAEVKKPGSSVKVSCKASGGTFSSAAISWVRQAPGQGLEWMGNIIPIVGIANYAQKFQGRVTITADESTSTAYMELSSLRSEDTAVYYCARDTGRGYTRHFWFDPWGQGTLVTVSS VL: DIQMTQSPSSLSASVGDRVTITCRASQSISSYLNWYQQKPGKAPKLLIYAASSLQSGVPSRFSGSGSGTDFTLTISSLQPEDFATYYCQQSDILYTFGGGTKVEIK	55.6 fold	32.1 fold
Antibody 34 (antibody, V domains shown, Tested as IgG detected with anti-human IgG Fc, compared with an IgG1 isotype control; also called antibody clone number 34; clone 34) VH: QVQLVQSGAEVKKPGSSVKVSCKASGGTFSSAAISWVRQAPGQGLEWMGGIFPISGHANYAQKFQGRVTITADESTSTAYMELSSLRSEDTAVYYCARDTGRGYTRHFWFDPWGQGTLVTVSS VL: DIQMTQSPSSLSASVGDRVTITCRASQSISSYLNWYQQKPGKAPKLLIYAASSLQSGVPSRFSGSGSGTDFTLTISSLQPEDFATYYCQQSDILYTFGGGTKVEIK	72.2 fold	33.8 fold
Antibody 36 (antibody, V domains shown, Tested as IgG detected with anti-human IgG Fc, compared with an IgG1 isotype control; also called antibody clone number 36; clone 36) VH: QVQLVQSGAEVKKPGSSVKVSCKASGGTFATYAISWVRQAPGQGLEWMGGIFPLSGTANYAQKFQGRVTITADESTSTAYMELSSLRSEDTAVYYCARDTGRGYTRHFWFDPWGQGTLVTVSS VL: DIQMTQSPSSLSASVGDRVTITCRASQSISSYLNWYQQKPGKAPKLLIYAASSLQSGVPSRFSGSGSGTDFTLTISSLQPEDFATYYCQQSDILYTFGGGTKVEIK	76.3 fold	31 fold
Antibody 33 (antibody, V domains shown, Tested as IgG detected with anti-human IgG Fc, compared with an IgG1 isotype control; also called antibody clone number 33; clone 33) VH: QVQLVQSGAEVKKPGSSVKVSCKASGGTFGNYAISWVRQAPGQGLEWMGGIIPIPGIANYAQKFQGRVTITADESTSTAYMELSSLRSEDTAVYYCARDTGRGYTRHFWFDPWGQGTLVTVSS VL: DIQMTQSPSSLSASVGDRVTITCRASQSISSYLNWYQQKPGKAPKLLIYAASSLQSGVPSRFSGSGSGTDFTLTISSLQPEDFATYYCQQSDILYTFGGGTKVEIK	73.3 fold	34.2 fold
Antibody 58 (antibody, V domains shown, Tested as IgG detected with anti-human IgG Fc, compared with an IgG1 isotype control; also called antibody clone number 58; clone 58) VH: EVQLVESGGGLVQPGRSLRLSCTASGFTFGDYAMSWFRQAPGKGLEWVGFIGSKFYGGETEYTASVKGRFTISRDGSKSIAYLQMNSLKTEDTAVYYCARGPRRYTYGMDVWGQGTTVTVSS VL: DIQMTQSPSSLSASVGDRVTITCRASQSISSYLNWYQQKPGKAPKLLIYAASSLQSGVPSRFSGSGSGTDFTLTISSLQPEDFATYYCQQSSTPLTFGGGTKVEIK	79.4 fold	37.3 fold
Antibody 10 (antibody, V domains shown, Tested as IgG detected with anti-human IgG Fc, compared with an IgG1 isotype control; also called antibody clone number 10; clone 10) VH: EVQLVESGGGLVQPGRSLRLSCAASGFTFDDYAVHWVRQAPGKGLEWVSGISWSSGLIGYADSVKGRFTISRDNAKNSLYLQMNSLRAEDTAVYYCAKGPPTYQDYFDLWGRGTLVTVSS VL: EIVLTQSPATLSLSPGERATLSCRASQSVSRYLAWYQQKPGQAPRLLIYDASNRATGIPARFSGSGSGTDFTLTISSLEPEDFAVYYCQQVSFFPPITFGGGTKVEIK	–	55.7 fold
Antibody 2 (antibody, V domains shown, Tested as IgG detected with anti-human IgG Fc, compared with an IgG1 isotype control; also called antibody clone number 2; clone 2) VH: EVQLVESGGGLVKPGGSLRLSCAASGFTFSEYTMNWVRQAPGKGLEWVSAIVGSGDSTYYADSVKGRFTISRDNSKNTLYLQMNSLRAEDTAVYYCAKDYSSGDWIDYGMDVWGQGTTVTVSS VL: DIQMTQSPSSLSASVGDRVTITCQASQDISNYLNWYQQKPGKAPKLLIYDASNLATGVPSRFSGSGSGTDFTFTISSLQPEDIATYYCQQFDLLPPTFGGGTKVEIK	–	63.9 fold
Antibody 5 (antibody, V domains shown, Tested as IgG detected with anti-human IgG Fc, compared with an IgG1 isotype control; also called antibody clone number 5; clone 5) VH: EVQLLESGGGLVQPGGSLRLSCAASGFTFSDYAMIWVRQAPGKGLEWVSAISGGGESTYYADSVKGRFTISRDNSKNTLYLQMNSLRAEDTAVYYCAKDYSSGDWIDYGMDVWGQGTTVTVSS VL: DIQMTQSPSSLSASVGDRVTITCQASQDISNYLNWYQQKPGKAPKLLIYDASNLATGVPSRFSGSGSGTDFTFTISSLQPEDIATYYCQQFDLLPPTFGGGTKVEIK	–	63.3 fold
Antibody 38 (antibody, V domains shown, Tested as IgG detected with anti-human IgG Fc, compared with an IgG1 isotype control; also called antibody clone number 38; clone 38) VH: EVQLLESGGGLVQPGGSLRLSCAASGFTFSGHLMSWVRQAPGKGLEWVSAISGSAGETYYADSVKGRFTISRDNSKNTLYLQMNSLRAEDTAVYYCARDAYYDDWSGWADWYFDLWGRGTLVTVSS VL: EIVLTQSPATLSLSPGERATLSCRASQSVSRYLAWYQQKPGQAPRLLIYDASNRATGIPARFSGSGSGTDFTLTISSLEPEDFAVYYCQQVSLLPPTFGGGTKVEIK	–	51.7 fold
Antibody 44 (antibody, V domains shown, Tested as IgG detected with anti-human IgG Fc, compared with an IgG1 isotype control; also called antibody clone number 44; clone 44) VH: QVQLVQSGAEVKKPGSSVKVSCKASGGTFDNYYISWVRQAPGQGLEWMGGIFPIFGTANYAQKFQGRVTITADESTSTAYMELSSLRSEDTAVYYCAREVGHYSGSPYYMDVWGKGTTVTVSS VL: DIQMTQSPSTLSASVGDRVTITCRASQSINSWLAWYQQKPGKAPKLLISDASSLESGVPSRFSGSGSGTEFTLTISSLQPDDFATYYCQQVGPYLTFGGGTKVEIK	–	46.9 fold
Antibody 15 (antibody, V domains shown, Tested as IgG detected with anti-human IgG Fc, compared with an IgG1 isotype control; also called antibody clone number 15; clone 15) VH: EVQLVESGGGLVQPGRSLRLSCTASGFTFGDVAMSWFRQAPGKGLEWVGYIGSKAYGGETEYTASVKGRFTISRDGSKSIAYLQMNSLKTEDTAVYYCARAGHSYGSIASNWFDPWGQGTLVTVSS VL: DIQMTQSPSSLSASVGDRVTITCRASQSISSYLNWYQQKPGKAPKLLIYGASSLQSGVPSRFSGSGSGTDFTLTISSLQPEDFATYYCQQGFYTPWTFGGGTKVEIK	–	53.2 fold
